Data as given in the RNAGym collection of RNA variant scans (doi:10.7554/elife.80360).

B1: HDV Ribozyme (parent)
chain: GGCCGGCAUGGUCCCAGCCUCCUCGCUGGCGCCGGCUGGGCAACAUUCCGAGGGGACCGUCCCCUCGGUAAUGGCGAAUGGGACCCA

Variants of: B1
Test: self-cleavage, relative activity (ratio to wild type); higher = more cleavage; co-transcriptional

Variant	self-cleavage
GGCCGGCAUGGUCCCAGCCUCCUCGCUGGCGCCGGCUGGGCAACAUUCCGAGGGGACCGUCCCCUCGGUGAUGGCGAUUGGGACCCA [A70G A78U]	0.151
GGCCGGCAUGGUCCCAGCCUCCUCGCUGGCGCCGGCUGGGCAACAUUCCGAGGGGACCGUCCCCUCGGUGAUGUCGAAUGGGACCCA [A70G G74U]	0.65
GGCCGGCAUGGUCCCAGCCUCCUCGCUGGCGCCGGCUGGGCAACAUUCCGAGGGGACCGUCCCCUCGGUGAUGACGAAUGGGACCCA [A70G G74A]	0.453
GGCCGGCAUGGUCCCAGCCUCCUCGCUGGCGCCGGCUGGGCAACAUUCCGAGGGGACCGUCCCCUCGGUGAUGGCGAAUGGGAGCCA [A70G C84G]	0.475
GGCCGGCAUGGUCCCAGCCUCCUCGCUGGCGCCGGCUGGGCAACAUUCCGAGGGGACCGUCCCCUCGGUGAUGGCGAAUGGGACUCA [A70G C85U]	1.01
GGCCGGCAUGGUCCCAGCCUCCUCGCUGGCGCCGGCUGGGCAACAUUCCGAGGGGACCGUCCCCUCGGUUAUGGCAAAUGGGACCCA [A70U G76A]	1.02
GGCCGGCAUGGUCCCAGCCUCCUCGCUGGCGCCGGCUGGGCAACAUUCCGAGGGGACCGUCCCCUCGGUUAUGGCCAAUGGGACCCA [A70U G76C]	1
GGCCGGCAUGGUCCCAGCCUCCUCGCUGGCGCCGGCUGGGCAACAUUCCGAGGGGACCGUCCCCUCGGUAUUGGGGAAUGGGACCCA [A71U C75G]	0.0852
GGCCGGCAUGGUCCCAGCCUCCUCGCUGGCGCCGGCUGGGCAACAUUCCGAGGGGACCGUCCCCUCGGUCACGGCGAAUGGGACCCA [A70C U72C]	0.369
GGCCGGCAUGGUCCCAGCCUCCUCGCUGGCGCCGGCUGGGCAACAUUCCGAGGGGACCGUCCCCUCGGUUAUGGCGAAUUGGACCCA [A70U G80U]	0.222
GGCCGGCAUGGUCCCAGCCUCCUCGCUGGCGCCGGCUGGGCAACAUUCCGAGGGGACCGUCCCCUCGGUAGUUGCGAAUGGGACCCA [A71G G73U]	0.291
GGCCGGCAUGGUCCCAGCCUCCUCGCUGGCGCCGGCUGGGCAACAUUCCGAGGGGACCGUCCCCUCGGUUAUGGCGCAUGGGACCCA [A70U A77C]	0.0978
GGCCGGCAUGGUCCCAGCCUCCUCGCUGGCGCCGGCUGGGCAACAUUCCGAGGGGACCGUCCCCUCGGUAGUGGCGAAUGGGACCUA [A71G C86U]	0.665
GGCCGGCAUGGUCCCAGCCUCCUCGCUGGCGCCGGCUGGGCAACAUUCCGAGGGGACCGUCCCCUCGGUAGUGGCGAAUGGGACCAA [A71G C86A]	1.19
GGCCGGCAUGGUCCCAGCCUCCUCGCUGGCGCCGGCUGGGCAACAUUCCGAGGGGACCGUCCCCUCGGUAUUGGCGAAUCGGACCCA [A71U G80C]	0.185
GGCCGGCAUGGUCCCAGCCUCCUCGCUGGCGCCGGCUGGGCAACAUUCCGAGGGGACCGUCCCCUCGGUAUUGGCGAAUUGGACCCA [A71U G80U]	0.21

Variant	self-cleavage
GGCCGGCAUGGUCCCAGCCUCCUCGCUGGCGCCGGCUGGGCAACAUUCCGAGGGGACCGUCCCCUCGGUCAUGGCGAACGGGACCCA [A70C U79C]	0.18
GGCCGGCAUGGUCCCAGCCUCCUCGCUGGCGCCGGCUGGGCAACAUUCCGAGGGGACCGUCCCCUCGGUGAUGGCAAAUGGGACCCA [A70G G76A]	0.92
GGCCGGCAUGGUCCCAGCCUCCUCGCUGGCGCCGGCUGGGCAACAUUCCGAGGGGACCGUCCCCUCGGUAUUGUCGAAUGGGACCCA [A71U G74U]	0.689
GGCCGGCAUGGUCCCAGCCUCCUCGCUGGCGCCGGCUGGGCAACAUUCCGAGGGGACCGUCCCCUCGGUAUUGACGAAUGGGACCCA [A71U G74A]	0.519
GGCCGGCAUGGUCCCAGCCUCCUCGCUGGCGCCGGCUGGGCAACAUUCCGAGGGGACCGUCCCCUCGGUAGUGGCGAAUGGGAACCA [A71G C84A]	1.02
GGCCGGCAUGGUCCCAGCCUCCUCGCUGGCGCCGGCUGGGCAACAUUCCGAGGGGACCGUCCCCUCGGUUAUGGCGAAUGGGAGCCA [A70U C84G]	0.541
GGCCGGCAUGGUCCCAGCCUCCUCGCUGGCGCCGGCUGGGCAACAUUCCGAGGGGACCGUCCCCUCGGUAUUGGCGAAUGGGUCCCA [A71U A83U]	0.426
GGCCGGCAUGGUCCCAGCCUCCUCGCUGGCGCCGGCUGGGCAACAUUCCGAGGGGACCGUCCCCUCGGUUAGGGCGAAUGGGACCCA [A70U U72G]	0.554
GGCCGGCAUGGUCCCAGCCUCCUCGCUGGCGCCGGCUGGGCAACAUUCCGAGGGGACCGUCCCCUCGGUUAAGGCGAAUGGGACCCA [A70U U72A]	0.415
GGCCGGCAUGGUCCCAGCCUCCUCGCUGGCGCCGGCUGGGCAACAUUCCGAGGGGACCGUCCCCUCGGUAGUGGCGAAUGGAACCCA [A71G G82A]	0.538
GGCCGGCAUGGUCCCAGCCUCCUCGCUGGCGCCGGCUGGGCAACAUUCCGAGGGGACCGUCCCCUCGGUAGUGGCGAAUGGUACCCA [A71G G82U]	0.312
GGCCGGCAUGGUCCCAGCCUCCUCGCUGGCGCCGGCUGGGCAACAUUCCGAGGGGACCGUCCCCUCGGUACUGGCGAAUCGGACCCA [A71C G80C]	0.302
GGCCGGCAUGGUCCCAGCCUCCUCGCUGGCGCCGGCUGGGCAACAUUCCGAGGGGACCGUCCCCUCGGUUAUGGCGAAGGGGACCCA [A70U U79G]	0.617
GGCCGGCAUGGUCCCAGCCUCCUCGCUGGCGCCGGCUGGGCAACAUUCCGAGGGGACCGUCCCCUCGGUAGUGGCGAUUGGGACCCA [A71G A78U]	0.229
GGCCGGCAUGGUCCCAGCCUCCUCGCUGGCGCCGGCUGGGCAACAUUCCGAGGGGACCGUCCCCUCGGUAGUGGCGAGUGGGACCCA [A71G A78G]	0.772
GGCCGGCAUGGUCCCAGCCUCCUCGCUGGCGCCGGCUGGGCAACAUUCCGAGGGGACCGUCCCCUCGGUAUUGGCGAAUGGAACCCA [A71U G82A]	0.365
